The source of these data is publication PMC9482650, “Quantitative fragmentomics allow affinity mapping of interactomes” (Nature Communications, 2022).

One test deals with HTRA1, Q92743. Nature of the test: holdup assay. Further details: key: below the threshold = too weak to quantify, mostly under pKd 3.1 to 4.
The target of a further test is NOS1, P29475. Nature of the test: holdup assay. Also on record: key: below the threshold = too weak to quantify, mostly under pKd 3.1 to 4.
[1] abbreviates: plain residues with an end cap or a label only (N-terminal biotin on a linker: ado-ado).
[2] abbreviates: plain residues with an end cap or a label only (N-terminal biotin on a linker: ahx).

Sequence of HTRA1, Q92743 (Q92743 360-477): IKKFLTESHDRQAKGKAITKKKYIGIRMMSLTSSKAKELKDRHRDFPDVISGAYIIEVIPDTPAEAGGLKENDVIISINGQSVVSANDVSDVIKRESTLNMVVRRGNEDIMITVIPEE
Sequence of NOS1, P29475 (P29475 9-101): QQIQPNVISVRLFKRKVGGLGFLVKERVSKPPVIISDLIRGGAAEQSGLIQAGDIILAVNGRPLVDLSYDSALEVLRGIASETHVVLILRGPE

B1: PLEKHA1, Q9HB21 (peptide)
chain: DDASLPVSDV
Turning to B1, the pKd entry with HTRA1, Q92743 (setting [1]) is “below the threshold”; with NOS1, P29475 (setting [1]), “below the threshold”.

B2: PFKM, P08237 (peptide)
chain: TRKRSGEAAV
Take B2: the pKd result was “below the threshold” with HTRA1, Q92743 (setting [1]) and 4.16 with NOS1, P29475 (setting [1]).

B3: KIRREL1, Q96J84 (peptide)
chain: RFQQRMQTHV
On to B3, for which the pKd result in the test with HTRA1, Q92743 (setting [1]) is given as “below the threshold”; with NOS1, P29475 (setting [1]), “below the threshold”.

B4: PRKACA, P17612 (peptide)
chain: EKCGKEFSEF
As for B4, the pKd entry with HTRA1, Q92743 (setting [1]) is “below the threshold”; with NOS1, P29475 (setting [1]), “below the threshold”.

B5: CLDN3, O15551 (peptide)
chain: GTGYDRKDYV
Take B5: the negative-log Kd (pKd) worked out at 4.14 in the test with HTRA1, Q92743 (setting [1]) and 4.45 with NOS1, P29475 (setting [1]).

B6: PTPRZ1, P23471 (peptide)
chain: NIAESLESLV
As to B6, the pKd in the test with HTRA1, Q92743 (setting [1]) stood at 4.41; in the test with NOS1, P29475 (setting [1]) it was 3.92.

B7: HTR2A, P28223 (peptide)
chain: DGVNEKVSCV
Consider B7, for which the pKd came out at 4.95 with HTRA1, Q92743 (setting [1]) and 3.69 with NOS1, P29475 (setting [1]).

B8: FZD2, Q14332 (peptide)
chain: TNSRHGETTV
On to B8, for which the pKd worked out at 4.41 in the test with HTRA1, Q92743 (setting [1]) and 3.79 with NOS1, P29475 (setting [1]).

B9: CCRL2, O00421 (peptide)
chain: REEPDHSTEV
With B9, the pKd with HTRA1, Q92743 (setting [1]) was 4.44; in the test with NOS1, P29475 (setting [1]) it was “below the threshold”.

B10: FOXI1, Q12951 (peptide)
chain: VLYPREGTEV
With B10, the pKd came to 4.64 in the test with HTRA1, Q92743 (setting [1]) and 4.05 with NOS1, P29475 (setting [1]).

B11: SRC, P12931 (peptide)
chain: EPQYQPGENL
Regarding B11, the pKd result in the test with HTRA1, Q92743 (setting [1]) is “below the threshold”; in the test with NOS1, P29475 (setting [1]) it was “below the threshold”.

B12: SCN5A, Q14524 (peptide)
chain: SPDRDRESIV
For the molecule B12, the pKd with HTRA1, Q92743 (setting [1]) was 4.51; with NOS1, P29475 (setting [1]), 3.7.

B13: SDK2, Q58EX2 (peptide)
chain: APIAGFSSFV
In the case of B13, the pKd with HTRA1, Q92743 (setting [1]) came out at 4.51; with NOS1, P29475 (setting [1]), 3.53.

B14: KARS1, Q15046 (peptide)
chain: LESTTVGTSV
For B14, the pKd is 3.95 in the test with HTRA1, Q92743 (setting [1]) and 3.86 in the test with NOS1, P29475 (setting [1]).

B15: AQP3, Q92482 (peptide)
chain: LAHVKHKEQI
B15: the pKd entry with HTRA1, Q92743 (setting [1]) is given as “below the threshold”; with NOS1, P29475 (setting [1]), “below the threshold”.

B16: PLXNB1, O43157 (peptide)
chain: AAVENKVTDL
As to B16, the pKd with HTRA1, Q92743 (setting [1]) is 4.12; with NOS1, P29475 (setting [1]), “below the threshold”.

B17: TECPR2, O15040 (peptide)
chain: EDLEDEWEVI
Consider B17, for which the pKd with HTRA1, Q92743 (setting [1]) was 5.29; with NOS1, P29475 (setting [1]) it was “below the threshold”.

B18: EPHA6, Q9UF33 (peptide)
chain: MHIQEKGFHV
Turning to B18, the pKd with HTRA1, Q92743 (setting [1]) worked out at 4.61; in the test with NOS1, P29475 (setting [1]) it was 3.62.

B19: RNF130, Q86XS8 (peptide)
chain: SLNANEVEWF
With B19, the pKd was found to be 4.49 with HTRA1, Q92743 (setting [1]) and 4 with NOS1, P29475 (setting [1]).

B20: ZSCAN30, Q86W11 (peptide)
chain: MQHQRTHTRV
As for B20, the pKd with HTRA1, Q92743 (setting [1]) is 3.99; with NOS1, P29475 (setting [1]) it was 3.91.

B21: FAM110B, Q8TC76 (peptide)
chain: ARESQKVSHV
For B21, the negative-log Kd (pKd) in the test with HTRA1, Q92743 (setting [1]) came out at 4.32; in the test with NOS1, P29475 (setting [1]), 3.55.

B22: PTPN18, Q99952 (peptide)
chain: RDPPAEWTRV
In the case of B22, the negative-log Kd (pKd) came out at 4.4 with HTRA1, Q92743 (setting [1]) and 3.66 in the test with NOS1, P29475 (setting [1]).

B23: MARCHF3, Q86UD3 (peptide)
chain: VKRNSKETVV
Turning to B23, the pKd was 4.35 with HTRA1, Q92743 (setting [1]) and 4.03 with NOS1, P29475 (setting [1]).

B24: TRIP6, Q15654 (peptide)
chain: ELSATVTTDC
Turning to B24, the pKd with HTRA1, Q92743 (setting [1]) is 3.56; with NOS1, P29475 (setting [1]), “below the threshold”.

B25: KCNA7, Q96RP8 (peptide)
chain: PPGKHLVTEV
For B25, the pKd with HTRA1, Q92743 (setting [1]) worked out at 4.84; in the test with NOS1, P29475 (setting [1]) it was 3.7.

B26: SDC2, P34741 (peptide)
chain: QKAPTKEFYA
With B26, the negative-log Kd (pKd) with HTRA1, Q92743 (setting [1]) was found to be 4.47; with NOS1, P29475 (setting [1]) it was 3.83.

B27: ADGRA3, Q8IWK6 (peptide)
chain: TGLWKHETTV
With B27, the pKd was 4.32 in the test with HTRA1, Q92743 (setting [1]) and “below the threshold” in the test with NOS1, P29475 (setting [1]).

B28: FZD4, Q9ULV1 (peptide)
chain: KPGKGSETVV
As for B28, the negative-log Kd (pKd) with HTRA1, Q92743 (setting [1]) came to 4.3; with NOS1, P29475 (setting [1]), 3.81.

B29: ABCA2, Q9BZC7 (peptide)
chain: QLSFNTDTLC
With B29, the pKd in the test with HTRA1, Q92743 (setting [1]) came out at 4.11; with NOS1, P29475 (setting [1]) it was 3.65.

B30: NCF1, P14598 (peptide)
chain: STKRKLASAV
B30: the pKd entry with HTRA1, Q92743 (setting [1]) is “below the threshold”; in the test with NOS1, P29475 (setting [1]), 4.07.

B31: CLDN18, P56856 (peptide)
chain: QSYPSKHDYV
For the molecule B31, the pKd in the test with HTRA1, Q92743 (setting [1]) amounted to 4.32; with NOS1, P29475 (setting [1]), 4.29.

B32: CGN, Q9P2M7 (peptide)
chain: TESNLQTSSC
In the case of B32, the pKd result in the test with HTRA1, Q92743 (setting [2]) is “below the threshold”; with NOS1, P29475 (setting [2]), “below the threshold”.

B33: TIAM1, Q13009 (peptide)
chain: APSRKLNTEI
Turning to B33, the pKd entry in the test with HTRA1, Q92743 (setting [2]) is “below the threshold”; with NOS1, P29475 (setting [2]), “below the threshold”.

B34: SLC22A9, Q8IVM8 (peptide)
chain: EDPRVEVTQF
With B34, the pKd with HTRA1, Q92743 (setting [1]) was 3.49; with NOS1, P29475 (setting [1]), 3.63.

B35: CACYBP, Q9HB71 (peptide)
chain: EKQAKGDTEF
Consider B35, for which the pKd entry with HTRA1, Q92743 (setting [2]) is “below the threshold”; with NOS1, P29475 (setting [2]), “below the threshold”.

B36: PRR16, Q569H4 (peptide)
chain: ILRKSTTTTV
For B36, the pKd with HTRA1, Q92743 (setting [1]) is 4.06; with NOS1, P29475 (setting [1]), “below the threshold”.

B37: JUP, P14923 (peptide)
chain: PYPTADHMLA
In the case of B37, the pKd with HTRA1, Q92743 (setting [1]) is 4.32; in the test with NOS1, P29475 (setting [1]), “below the threshold”.

B38: KCNV1, Q6PIU1 (peptide)
chain: RSSGGDDFWF
Take B38: the pKd with HTRA1, Q92743 (setting [1]) is 4.61; in the test with NOS1, P29475 (setting [1]), “below the threshold”.
